Assay results from patent US20250361274A1, “PEPTIDE AND PEPTIDE-CONTAINING AGENT” (PEPTIDREAM INC., priority 2022, published 2025).
Bridge positions count the residues as written; N and C are the ends. Square brackets hold non-standard residues; d marks the D form. Ends that are not written are not given here. * marks the point of attachment. X8 = 4‑(carboxymethyl)piperazine‑1‑carbonyl, O=C(O)CN1CCN(C(=O)*)CC1; Phe(4-COOH) = N[C@@H](Cc1ccc(C(=O)O)cc1)C(=O)O; Bip = N[C@@H](Cc1ccc(-c2ccccc2)cc1)C(=O)O; 4Pal = N[C@@H](Cc1ccncc1)C(=O)O; Tic = O=C(O)[C@@H]1Cc2ccccc2CN1; βAla = NCCC(=O)O

Assays:
BMP7 = molecular target: T1, BMP7 (Homo sapiens, UniProt P18075); test: BMP7 signal transduction inhibitory activity: SMAD1 phosphorylation by BMP7 stimulus, A549 cells; type: cell-based; conditions: inhibition of SMAD1 phosphorylation by BMP7 stimulus, AlphaLISA, A549 cells; class by peptide concentration zone
T1 sequence (P18075 293-431): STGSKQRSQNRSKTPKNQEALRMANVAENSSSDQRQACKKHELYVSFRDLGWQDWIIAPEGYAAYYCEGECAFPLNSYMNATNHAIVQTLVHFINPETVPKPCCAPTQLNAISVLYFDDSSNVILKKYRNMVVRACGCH
Method: In the present Example, BMP7 signal transduction inhibitory activity of each peptide consisting of an amino acid sequence set forth in any of SEQ ID NOs: 5 to 240 and 243 to 421 synthesized in Example 10 was verified by phosphorylation of SMAD1 caused by BMP7 stimulus. The evaluation was performed using 10 nM of BMP7 instead of BMP 4. Regarding SEQ ID NOs: 5 to 240, the concentrations of the peptides synthesized in the same manner as in Example 2 (shown as 2 in the row of Synthesis) were 1 nM, 10 nM, and 100 nM, and the concentrations of the peptides synthesized in the same manner as in Example 1 (shown as 1 in the row of Synthesis) were 10 nM, 100 nM, and 1,000 nM, similarly with Example 11. […] Regarding SEQ ID NOs: 243 to 273 and SEQ ID NOs: 299 to 321, the test was performed at the concentrations (10, 100, 1,000 nM) described in Table 6. […] Regarding SEQ ID NOs: 274 to 298, the test was performed at the concentrations (100, 300, 1,000 nM) described in Table 6. […] Regarding SEQ ID NOs: 322 to 370 and SEQ ID NOs: 393 to 421, the test was performed at the concentrations (1, 10, 100 nM). […] Regarding SEQ ID NOs: 371 to 391, the test was performed at the concentrations (10, 30, 90 nM). […] The evaluation tests of the signal transduction inhibitory activities of SEQ ID NOs: 87, 177, and 181 are as follows. Specifically, the inhibitory activity of BMP4 was evaluated in the same manner as in Example 11 that used A549 cells. Eight concentrations of the peptides were used at a common ratio of 1/3 starting from 2 nM. The inhibitory activity of BMP7 was evaluated in the same manner as in Example 12. Eight concentrations of the peptides were used at a common ratio of 1/3 starting from 100 nM. Note that recombinant Human Noggin Protein (R&D) as a positive control was used at the same concentration as that of the peptide. […] The inhibitory activity of BMP7 was evaluated using eight concentrations of the peptides at a common ratio of 1/3 starting from 1,000 nM in the same manner as in Example 12.

BMP4 = molecular target: T2, BMP4 (Homo sapiens, UniProt P12644); test: BMP4 signal transduction inhibitory activity: SMAD1 phosphorylation by BMP4 stimulus, AlphaLISA SureFire, A549 cells; type: cell-based; conditions: inhibition of SMAD1 phosphorylation by BMP4 stimulus, AlphaLISA, A549 cells; class by peptide concentration zone
T2 sequence (P12644 293-408): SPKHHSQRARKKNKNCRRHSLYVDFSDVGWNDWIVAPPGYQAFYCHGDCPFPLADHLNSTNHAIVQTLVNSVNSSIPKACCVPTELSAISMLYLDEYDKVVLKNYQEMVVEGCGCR
Method: In the present Example, a BMP4 signal transduction inhibitory activity of each peptide consisting of an amino acid sequence set forth in any of SEQ ID NOs: 5 to 240 and 243 to 421 synthesized in Example 10 was verified by phosphorylation of SMAD1 caused by BMP4 stimulus. A549 cells were cultured in MEM (Thermo Fisher Scientific) containing 10% FBS (Thermo Fisher Scientific), 1×Non-essential amino acids (Thermo Fisher Scientific), and 50 μg/mL Gentamicin. After TrypLE (Gibco) was used to peel the cells, seeding was performed in a 96-well plate for adhesion cells so that the number of cells would be 20,000 per well, followed by culturing for 48 hours. After the cells were cultured as described above, the culture medium was replaced with a peptide solution or recombinant Human Noggin Protein (R&D) solution as a positive control diluted to various concentrations in a nutrition-starved culture medium containing 0.1% BSA (Sigma) instead of FBS Thirty minutes after culturing, […], to stimulate it for 60 minutes. The culture medium was removed and the cells were lysed with Lysis Buffer provided with AlphaLISA (registered trademark) SureFire (registered trademark) Ultra SMAD1 (p-[…]/465) Assay kit (PerkinElmer). According to the protocol of the kit, a signal was detected using SpectraMax (registered trademark) Paradigm (registered trademark) multimode microplate reader (Molecular Devices). The obtained signal was analysed using GraphPad Prism (GraphPad Software). The % inhibition was calculated by considering non-stimulation as 100% inhibition and BMP stimulation only as 0% inhibition. Regarding SEQ ID NOs: 5 to 187, the concentrations of the peptides synthesized in the same manner as in Example 2 (shown as 2 in the row of Synthesis) were 0.02 nM, 0.2 nM, and 2 nM, and the concentrations of the peptides synthesized in the same manner as in Example 1 (shown as 1 in the row of Synthesis) were 0.2 nM, 2 nM, and 20 nM. The evaluation results were based on the results of evaluation using the peptides synthesized in the same manner as in Example 2. […] Regarding SEQ ID NOs: 243 to 321, the test was performed at the concentrations described in Table 6. […] Regarding SEQ ID NOs: 322 to 421, the test was performed at the concentrations described in Table 7. […] The evaluation tests of the signal transduction inhibitory activities of SEQ ID NOs: 87, 177, and 181 are as follows. Specifically, the inhibitory activity of BMP4 was evaluated in the same manner as in Example 11 that used A549 cells. Eight concentrations of the peptides were used at a common ratio of 1/3 starting from 2 nM. The inhibitory activity of BMP7 was evaluated in the same manner as in Example 12. Eight concentrations of the peptides were used at a common ratio of 1/3 starting from 100 nM. Note that recombinant Human Noggin Protein (R&D) as a positive control was used at the same concentration as that of the peptide. […] The inhibitory activity of BMP7 was evaluated using eight concentrations of the peptides at a common ratio of 1/3 starting from 1,000 nM in the same manner as in Example 12.

Substance | aLISA BMP7 (BMP7) | aLISA BMP4 (BMP4)
41 ({CH2CO}-A[Tic]VYVDK[Bip]PYP[Bip]Y[Phe(4-COOH)][Phe(4-COOH)]SCG-NH2; thioether N-17) [compound 41] | ND (the inhibitory activity was less than 30% at the maximum concentration evaluated) | C (showed an inhibitory activity of less than 50% in 0.2 nM-addition zone and showed an inhibitory activity of 50% or more in 2 nM-addition zone were defined as B or C)
42 (Ac-AKVYVDK(Ac)[Bip]PYP[Bip]Y[Phe(4-COOH)][Phe(4-COOH)]SCG-NH2; thioether (positions not given here); not fully specified (bridges)) [compound 42] | ND (the inhibitory activity was less than 30% at the maximum concentration evaluated) | A (showed an inhibitory activity of 50% or more in a zone to which the peptide was added to in an amount of 0.2 nM)
43 (Ac-AKVYVD[4Pal][Bip]PYP[Bip]Y[Phe(4-COOH)][Phe(4-COOH)]SCG-NH2; thioether (positions not given here); not fully specified (bridges)) [compound 43] | ND (the inhibitory activity was less than 30% at the maximum concentration evaluated) | C (showed an inhibitory activity of less than 50% in 0.2 nM-addition zone and showed an inhibitory activity of 50% or more in 2 nM-addition zone were defined as B or C)
45 (Ac-AK(X8)VYVK(X8)K[Bip]PYP[Bip]Y[Phe(4-COOH)][Phe(4-COOH)]SCG-NH2; thioether (positions not given here); not fully specified (bridges)) [compound 45] | ND (the inhibitory activity was less than 30% at the maximum concentration evaluated) | A (showed an inhibitory activity of 50% or more in a zone to which the peptide was added to in an amount of 0.2 nM)
46 (ARVYVDR[Bip]PYP[Bip]Y[Phe(4-COOH)][Phe(4-COOH)]SC) [compound 46] | ND (the inhibitory activity was less than 30% at the maximum concentration evaluated) | A (showed an inhibitory activity of 50% or more in a zone to which the peptide was added to in an amount of 0.2 nM)
47 (Ac-ARVYVDR[Bip]PYP[Bip]Y[Phe(4-COOH)][Phe(4-COOH)]SC[βAla][dE]-OH; thioether (positions not given here); not fully specified (bridges)) [compound 47] | ND (the inhibitory activity was less than 30% at the maximum concentration evaluated) | A (showed an inhibitory activity of 50% or more in a zone to which the peptide was added to in an amount of 0.2 nM)
48 (Ac-ARVYVDR[Bip]PYP[Bip]Y[Phe(4-COOH)][Phe(4-COOH)]SC[βAla]K-NH2; thioether (positions not given here); not fully specified (bridges)) [compound 48] | ND (the inhibitory activity was less than 30% at the maximum concentration evaluated) | C (showed an inhibitory activity of less than 50% in 0.2 nM-addition zone and showed an inhibitory activity of 50% or more in 2 nM-addition zone were defined as B or C)
49 (Ac-ARVYVDR[Bip]PYP[Bip]Y[Phe(4-COOH)][Phe(4-COOH)]SC[βAla]-PEG12Me; thioether (positions not given here); not fully specified (bridges)) [compound 49] | ND (the inhibitory activity was less than 30% at the maximum concentration evaluated) | C (showed an inhibitory activity of less than 50% in 0.2 nM-addition zone and showed an inhibitory activity of 50% or more in 2 nM-addition zone were defined as B or C)
50 (Ac-ARVYVDR[Bip]PYP[Bip]Y[Phe(4-COOH)][Phe(4-COOH)]SC[βAla]K(OCOmPEG10000)-NH2; thioether (positions not given here); not fully specified (bridges)) [compound 50] | B (showed less than 50% of inhibitory activity in 1 nM-addition zone and showed 50% or more of inhibitory activity in 10 nM-addition zone) | D (showed inhibitory activity of less than 50% in 2 nM-addition zone)
